Consider one molecule from PMC11287749, “Optical Aptamer-Based Cytokine Nanosensor Detects Macrophage Activation by Bacterial Toxins”.

In this series the target is IL-6 (human recombinant, Invitrogen) (Homo sapiens, UniProt P05231 30-212). Description: SWCNT NIR fluorescence; PBS, 5250 ng/mL IL-6, 3 h; p = 0.66; 0.5 mg/L SWCNT-ssDNA in 1x PBS (or 1x PBS + 10% FBS), 5250 ng/mL IL-6, 120 uL, up to 180 min; pH and temperature not stated in the material. To be noted: protein: commercial.
IL-6 (human recombinant, Invitrogen), sequence (P05231 30-212): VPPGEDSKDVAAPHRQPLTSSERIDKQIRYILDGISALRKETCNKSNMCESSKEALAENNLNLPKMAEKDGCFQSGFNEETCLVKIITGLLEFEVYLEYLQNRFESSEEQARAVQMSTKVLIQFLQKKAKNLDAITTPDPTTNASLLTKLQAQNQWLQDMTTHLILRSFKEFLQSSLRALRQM

GTGTGTGTGTGTGTGTGTGTGTGTGTGTGT (ssDNA, noncovalently adsorbed on SWCNT) [(GT)15 control]: the binding result is given as “no binding”.
